Results on 1 substance are retold here after paper PMC5653232.

This assay concerns the target H3K9Cme3-NCP (fluorescein-labelled DNA, unlabelled wild type H2A) (human) (UniProt P0C0S8). Put plainly: fluorescence polarisation.

CHD3 PHD1/2 (373–508), sequence (Q12873 373-508): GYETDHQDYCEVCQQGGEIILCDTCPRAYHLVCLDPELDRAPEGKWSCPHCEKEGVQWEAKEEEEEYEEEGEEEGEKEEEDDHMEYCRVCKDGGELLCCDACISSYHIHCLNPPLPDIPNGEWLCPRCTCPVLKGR

Broadly, the Kd is a measure of binding affinity in units of concentration. A low value points to higher affinity. Turning to “CHD3 PHD1/2 (373–508) (from UniProt Q12873 373-508) (domain or fragment)”, the Kd stood at 1400 nM.
